± gives the uncertainty stated by the source.
Assay: self-splicing fitness, log relative to wild type (ln ratio); higher = more splicing; Tetrahymena group I intron in knt gene, E. coli kanamycin selection, DiMSum; sequences stand for … in CUCUCU…GGAGGGAAAAGUUAUCAGGCAUGCACCUGGUAGCUAGUCUUUAAACCAAUAGAUUGCAUCGGUUUAAAAGGCAAGACCGUCAAAUUGCGGGAAAGGGGUCAACAGCCGUUCAGUACCAAGUCUCAGGGGAAACUUUGAGAUGGCCUUGCAAAGGGUAUGGUAAUAAGCUGACGGACAUGGUCCUAACCACGCAGCCAAGUCCUAAGUCAACAGAUCUUCUGUUGAUAUGGAUGCAGUUCACAGACUAAAUGUCGGUCGGGGAAGAUGUAUUCUUCUCAUAAGAUAUAGUCGGACCUCUCCUUAAUGGGAGCUAGCGGAUGAAGUGAUGCAACACUGGAGCCGCUGGGAACUAAUUUGUAUGCGAAAGUAUAUUGAUUAGUUUUGGAGUACUCGUGGUCG
How it was run: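 Library with all eight P1ex-region intron nucleotides randomised, intron inside the knt kanamycin-resistance gene on pET-22b(+), in E. coli BL21(DE3). Cells grew overnight at 37°C or 30°C on LB agar with or without 25 μg/mL kanamycin (plus 100 μg/mL carbenicillin, 50 μM IPTG, 0.2% rhamnose), in six replicate transformations. Pooled colonies were amplicon-sequenced on Illumina HiSeq 2500. DiMSum fitness is the error-weighted combination of wild-type-normalised replicate fold changes, kanamycin versus none.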

Sequence | self-splicing fitness (ln) (30 °C) | self-splicing fitness (ln) (37 °C)
AUAAAGCAAUAUUACGCACG | -0.375 ± 0.083 | -0.0827 ± 0.11
ACAAAGCAAUAUUACGGAAA | -2.26 ± 0.18 | -1.7 ± 0.21
CAUUAGCAAUAUUACGCUGG | -2.7 ± 0.13 | -1.67 ± 0.14
CCUUAGCAAUAUUACGACAA | -3.31 ± 0.2 | -3.02 ± 0.35
GAUAAGCAAUAUUACGGAGC | -3.95 ± 0.29 | -1.76 ± 0.19
GUGUAGCAAUAUUACGAUGA | -1.16 ± 0.087 | -0.756 ± 0.094
UCCUAGCAAUAUUACGUUUC | -2.36 ± 0.4 | -3.04 ± 0.43
GCGGAGCAAUAUUACGGUGC | -3.56 ± 0.49 | –
GCGCAGCAAUAUUACGAGCG | -2.39 ± 0.15 | -2.26 ± 0.24
CACUAGCAAUAUUACGUUGA | -3.56 ± 0.2 | -2.24 ± 0.16
AACGAGCAAUAUUACGCAAC | -2.01 ± 0.21 | -1.94 ± 0.44
GUUUAGCAAUAUUACGUAGU | -1.84 ± 0.14 | -0.706 ± 0.14
GGUGAGCAAUAUUACGUUAG | -3.01 ± 0.2 | -2.83 ± 0.3
CGGGAGCAAUAUUACGCAAG | -3.14 ± 0.23 | -2.13 ± 0.29
UCUUAGCAAUAUUACGUUGA | -2.76 ± 0.22 | -1.94 ± 0.18
GAACAGCAAUAUUACGCAGG | -3.74 ± 0.14 | -2.7 ± 0.11
UUGCAGCAAUAUUACGGCGG | -1.7 ± 0.081 | -1.01 ± 0.11
CCGGAGCAAUAUUACGGCAA | -1.63 ± 0.22 | -2.48 ± 0.31
UAACAGCAAUAUUACGACUA | -0.142 ± 0.049 | -0.212 ± 0.057
GUCAAGCAAUAUUACGGCAG | – | -2.86 ± 0.29

Sequence | self-splicing fitness (ln) (30 °C) | self-splicing fitness (ln) (37 °C)
UUGUAGCAAUAUUACGUCUA | -0.856 ± 0.086 | -0.738 ± 0.11
UAUGAGCAAUAUUACGAGUA | -2.16 ± 0.19 | -0.862 ± 0.18
CGCGAGCAAUAUUACGGACG | – | -1.75 ± 0.42
GUUCAGCAAUAUUACGCAAA | -0.717 ± 0.17 | -0.625 ± 0.18
UGUGAGCAAUAUUACGGUCC | -3.6 ± 0.48 | -2.09 ± 0.42
AACGAGCAAUAUUACGGUGA | -3.07 ± 0.33 | -1.99 ± 0.31
UCCCAGCAAUAUUACGCUAC | – | -2.27 ± 0.32
GAAUAGCAAUAUUACGCCCG | -1.28 ± 0.18 | -0.828 ± 0.23
AACGAGCAAUAUUACGCAAG | -3.43 ± 0.19 | -2.19 ± 0.19
UUACAGCAAUAUUACGCAUG | -1.18 ± 0.069 | -0.0513 ± 0.087
UAGAAGCAAUAUUACGGAUA | -1.18 ± 0.1 | -0.43 ± 0.11
GGCUAGCAAUAUUACGAUGG | – | -2.46 ± 0.23
AUUCAGCAAUAUUACGGGUG | -1.71 ± 0.077 | -0.135 ± 0.086
CGUCAGCAAUAUUACGGCAG | -0.866 ± 0.064 | -0.287 ± 0.077
CGAUAGCAAUAUUACGAACA | -2.13 ± 0.47 | -1.38 ± 0.27
UAUAAGCAAUAUUACGUGCG | -0.452 ± 0.11 | -0.00615 ± 0.17
GCAAAGCAAUAUUACGCAGG | -2.33 ± 0.13 | -2.02 ± 0.19
UGCAAGCAAUAUUACGUUCC | -3.72 ± 0.33 | -1.43 ± 0.36
ACUUAGCAAUAUUACGUCUA | -1.67 ± 0.16 | -1.83 ± 0.17
UACUAGCAAUAUUACGCAGC | -2.49 ± 0.39 | -2.08 ± 0.39

From the supplement of paper PMC7877785
